Measured values published in patent publication US11174311B2, “Antibody against trimeric TNFα complex” (UCB BIOPHARMA SRL, priority 2016, dated 2021).
Entries after “also recorded” stand apart in the source; their conditions may differ. Each block holds one molecule with its values, some of them ahead of it.

Assays:
soluble form of TNFα = target: T1, soluble form of TNFα (Homo sapiens, UniProt P01375); experiment: SPR on Biacore 4000 against immobilised soluble TNFα; format: binding; details: concentration of up to 100 μM
T1 construct: the immobilised soluble form of CD40L and the soluble form of TNFα
Protocol: In another experiment, BIO8898 was tested against the immobilised soluble form of CD40L and the soluble form of TNFα by SPR on a Biacore 4000 machine.

Human TNFα [1] = target: T2, Human TNFα (Homo sapiens, UniProt P01375); experiment: Single cycle kinetics by surface plasmon resonance; format: binding; set-up: made in house
Protocol: For single cycle kinetics profiling of compound (1) to either directly immobilised TNFα or CA1974-captured TNFα surface plasmon resonance was performed at 25° C. using a BIAcore T200 (GE Healthcare). Human TNFα was tethered onto flow-channel (Fc)2 (2000 RU). CA1974 IgG (>10,000 response units) was tethered onto Fc3,4 and Fc1 blank immobilisation on a CMS Sensor Chip (GE Healthcare) via amine coupling chemistry. The surface was allowed to stabilise in HBS-P buffer (10 mM HEPES, pH 7.4, 0.15 M NaCl, 0.0005% (v/v) surfactant P20-GE Healthcare)+5% DMSO was used as the running buffer. Human TNFα was flowed over Fc4 to a capture level of ˜2,000 RU. Compound (1) was flowed over all four flow cells in series (1.875 μM, 3.75 μM, 7.5 μM and 30 μM) at 100 μl/min. Double referenced background-subtracted binding curves were produced using the T200 Evaluation software (version 1.0) following standard procedures.
Target sequence in this assay (P01375 77-233 limits assumed): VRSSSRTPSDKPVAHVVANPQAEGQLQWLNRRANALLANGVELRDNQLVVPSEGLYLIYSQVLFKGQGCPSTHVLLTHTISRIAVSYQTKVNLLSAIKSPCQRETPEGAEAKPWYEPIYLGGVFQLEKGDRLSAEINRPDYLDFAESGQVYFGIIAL

[2] = target: human TNFα complexed with compound (1) (Homo sapiens, UniProt P01375); experiment: Size exclusion chromatography (HPLC) of mouse Fab with TNFα-compound complex; format: binding
membrane-bound TNFα = experiment: FACS assay, engineered NS0 cell line overexpressing membrane TNFα; format: cell-based; details: Fab fragments
Protocol: An engineered NS0 cell line, which overexpresses membrane TNFα, due to knock-out of the TACE cleavage site was incubated with 0.001-10 μM compound (1) or 0.1% DMSO for 1 h at 37° C. Cells were washed, fixed and stained with antibody Fab fragments at 0.01 or 0.1 μg/ml for 1 hour on ice. (Secondary antibody was anti-mouse Fab-DyeLight488 from Jackson ImmunoResearch).

Human TNFα [3] = target: T2, Human TNFα; experiment: FACS assay, HEK JumpIn cells overexpressing TNF-RI, receptor-bound TNFα; format: cell-based; set-up: host or cells: HEK JumpIn cells (express the partner TNF-RI only); details: antibody at 1 and 10 μg/ml
Protocol: Recombinant antibodies were also tested for binding to compound-distorted TNFα in a FACS assay using human embryonic kidney (HEK) JumpIn cells, which overexpress TNF-RI after induction with doxycycline at 1 μg/ml for 2.5 hours. HEK cells were trypsinised and incubated for 2 h in medium to allow recovery of digested TNFRI levels. Human TNFα at 2 μg/mL was pre-incubated with 40 μM compound (1) or 0.4% DMSO for 1 h at 37° C. The pre-incubation mix was added to the cells for 1 h on ice (dilution 1:4, final concentrations: 0.5 μg/mL human-TNFα+/−[…] or 0.1% DMSO). […] (Secondary antibody: anti-mouse-Alexa488), before analysis for receptor-bound TNFα.
Target sequence in this assay (P01375 77-233 limits assumed): as above
Target sequence in this assay (P19438 30-455 partner): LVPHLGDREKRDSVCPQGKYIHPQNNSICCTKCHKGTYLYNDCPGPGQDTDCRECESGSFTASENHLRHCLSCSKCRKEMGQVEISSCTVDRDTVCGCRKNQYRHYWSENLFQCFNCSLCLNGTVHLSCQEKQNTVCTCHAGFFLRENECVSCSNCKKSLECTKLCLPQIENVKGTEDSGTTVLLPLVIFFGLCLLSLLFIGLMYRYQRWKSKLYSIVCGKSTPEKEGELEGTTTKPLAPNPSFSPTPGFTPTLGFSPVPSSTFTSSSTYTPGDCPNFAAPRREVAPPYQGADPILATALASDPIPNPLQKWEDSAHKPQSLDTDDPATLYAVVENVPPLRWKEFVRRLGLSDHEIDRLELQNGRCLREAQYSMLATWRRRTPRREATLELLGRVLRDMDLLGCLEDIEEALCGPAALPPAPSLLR

membrane-bound TNFα, sequence (P01375 90-233 limits assumed): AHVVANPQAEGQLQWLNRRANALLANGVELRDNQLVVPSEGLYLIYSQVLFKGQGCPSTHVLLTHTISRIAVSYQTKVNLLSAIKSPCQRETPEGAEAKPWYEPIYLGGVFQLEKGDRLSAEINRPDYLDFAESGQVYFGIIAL
T1 sequence (P01375 77-233 limits assumed): as the sequence (P01375 77-233 limits assumed) above
human TNFα complexed with compound (1), sequence (P01375 77-233 limits assumed, one chain of several): as the sequence (P01375 77-233 limits assumed) above

binding to TNFα (soluble form of TNFα): not to bind; also recorded: no binding
Molecule: O=C(NCc1cccc(-c2ccccc2)c1)c1cc(-c2cc(C(=O)NC(C(=O)O)C3CCCCC3)nc(C(=O)N3CCCC3CN3CCCC3)c2)cc(C(=O)N2CCCC2CN2CCCC2)n1 (centres unmarked) [BIO8898]

binding kinetics profile (Human TNFα [1]; TNFα captured via antibody CA1974): fast on-fast off
binding kinetics profile (Human TNFα [1]; directly immobilised apo-TNF): slow on-slow off
Molecule: Cc1ccc(C)c(Cn2c(C(O)c3ccncc3)nc3ccc(-c4cnn(C)c4)cc32)c1 (centres unmarked) [compound (1)]

stoichiometry Fab : TNFα trimer [2]: 1 Fab: 1 TNFα trimer
staining with the DMSO control (Human TNFα [3]; TNFα pre-incubated with DMSO): no staining
B1: CA185_01979: rat-derived conformation-selective antibody to TNFα-compound complex, LCVR SEQ ID NO: 22, HCVR SEQ ID NO: 23; used as mouse IgG or mouse Fab (antibody, V domains shown)
VH: EVHLVESGPGLVKPSQSLSLTCSVTGYSITNSYWDWIRKFPGNKMEWMGYINYSGSTGYNPSLKSRISISRDTSNNQFFLQLNSITTEDTATYYCARGTYGYNAYHFDYWGRGVMVTVSS
VL: DIQMTQSPASLSASLEEIVTITCQASQDIGNWLSWYQQKPGKSPHLLIYGTTSLADGVPSRFSGSRSGTQYSLKISGLQVADIGIYVCLQAYSTPFTFGSGTKLEIK
modifications: HCVR of 1979; LCVR of 1979
notes: used as mouse IgG or mouse Fab
staining with the DMSO controls (membrane-bound TNFα; cells incubated with 0.1% DMSO): no staining
staining / recognition of membrane TNF (membrane-bound TNFα; cells incubated with compound (1)): only recognise TNF which has been pre-incubated with compound (1)
staining / recognition of receptor-bound TNFα (Human TNFα [3]; TNFα pre-incubated with compound (1)): only recognise TNFα which has been pre-incubated with compound (1)
